Patent US20210061914A1 (published 2021)

Columns and labels:
[1] = target: HLA-A*01:01_… (HLA-PEPTIDE target G10), soluble (human, enzymatically biotinylated (BirA)); test: scFv PPE ELISA
[2] = target: HLA-A*02:01_… (HLA-PEPTIDE target G8), soluble (human, enzymatically biotinylated (BirA) for screening and BLI); test: scFv PPE ELISA

B1: scFv R3G10-P2C04 (scFv, V domains shown)
VH: QVQLVQSGAEVKKPGASVKVSCKASGGTFSNSIINWVRQAPGQGLEWMGWMNPNSGNTNYAQKFQGRVTMTRDTSTSTVYMELSSLRSEDTAVYYCAREQWPSYWYFDLWGRGTLVTVSS
VL: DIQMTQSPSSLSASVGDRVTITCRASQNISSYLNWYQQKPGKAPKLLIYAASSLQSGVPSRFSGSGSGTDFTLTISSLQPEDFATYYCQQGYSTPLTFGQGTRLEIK
notes: scFv
fold selective binding, target pHLA vs minipool of negative control pHLAs [1]: ≥ 3 fold

B2: scFv R3G10-P1B07 (scFv, V domains shown)
VH: QVQLVQSGAEVKKPGASVKVSCKASGYTFTSYYMHWVRQAPGQGLEWMGIIHPGGGTTSYAQKFQGRVTMTRDTSTSTVYMELSSLRSEDTAVYYCARDKVYGDGFDPWGQGTLVTVSS
VL: DIQMTQSPSSLSASVGDRVTITCRASQSISRWLAWYQQKPGKAPKLLIFDASRLQSGVPSRFSGSGSGTDFTLTISSLQPEDFATYYCQQAEAFPYTFGQGTKVEIK
notes: scFv
fold selective binding, target pHLA vs minipool of negative control pHLAs [1]: ≥ 3 fold

B3: scFv R3G10-P2G11 (scFv, V domains shown)
VH: QVQLVQSGAEVKKPGASVKVSCKASGGTFSTHDINWVRQAPGQGLEWMGVINPSGGSAIYAQKFQGRVTMTRDTSTSTVYMELSSLRSEDTAVYYCARDRGYSYGYFDYWGQGTLVTVSS
VL: DIQMTQSPSSLSASVGDRVTITCRASQDISRYLAWYQQKPGKAPKLLIYDASNLETGVPSRFSGSGSGTDFTLTISSLQPEDFATYYCQQANSFPRTFGQGTKVEIK
notes: scFv
fold selective binding, target pHLA vs minipool of negative control pHLAs [1]: ≥ 3 fold

B4: scFv R3G10-P5C08 (scFv, V domains shown)
VH: QVQLVQSGAEVKKPGASVKVSCKASGYNFTGYYMHWVRQAPGQGLEWMGIIAPSDGSTNYAQKFQGRVTMTRDTSTSTVYMELSSLRSEDTAVYYCARETGDDAFDIWGQGTMVTVSS
VL: not shown
notes: scFv
fold selective binding, target pHLA vs minipool of negative control pHLAs [1]: ≥ 3 fold

B5: scFv R3G10-P4A02 (scFv, V domains shown)
VH: QVQLVQSGAEVKKPGASVKVSCKASGYTLSYYYMHWVRQAPGQGLEWMGMIGPSDGSTSYAQRFQGRVTMTRDTSTGTVYMELSSLRSEDTAVYYCARDTGDHFDYWGQGTLVTVSS
VL: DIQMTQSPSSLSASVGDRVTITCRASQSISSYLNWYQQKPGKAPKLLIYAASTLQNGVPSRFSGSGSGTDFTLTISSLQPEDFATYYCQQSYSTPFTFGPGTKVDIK
notes: scFv
fold selective binding, target pHLA vs minipool of negative control pHLAs [1]: ≥ 3 fold

B6: scFv R3G10-P4G06 (scFv, V domains shown)
VH: QVQLVQSGAEVKKPGASVKVSCKASGYTLSYYYMHWVRQAPGQGLEWMGMIGPSDGSTSYAQRFQGRVTMTRDTSTGTVYMELSSLRSEDTAVYYCARDTGDHFDYWGQGTLVTVSS
VL: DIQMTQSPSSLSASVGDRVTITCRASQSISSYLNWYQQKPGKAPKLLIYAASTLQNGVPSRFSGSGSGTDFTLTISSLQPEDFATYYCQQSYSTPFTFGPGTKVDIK
notes: scFv; printed VH and VL equal those of R3G10-P4A02
fold selective binding, target pHLA vs minipool of negative control pHLAs [1]: ≥ 3 fold

B7: scFv G8-P1A06 (scFv, V domains shown)
VH: QVQLVQSGAEVKKPGASVKVSCKASGYTFTNYYMHWVRQAPGQGLEWMGWMNPIGGGTGYAQKFQGRVTMTRDTSTSTVYMELSSLRSEDTAVYYCARVYDFWSVLSGFDIWGQGTLVTVSS
VL: DIQMTQSPSSLSASVGDRVTITCRASQAISNSLAWYQQKPGKAPKLLIYAASTLQSGVPSRFSGSGSGTDFTLTISSLQPEDFATYYCGQSYSTPPTFGQGTKLEIK
notes: scFv
fold selective binding, target pHLA vs minipool of negative control pHLAs [2]: ≥ 3 fold

B8: scFv R3G10-P1F06 (scFv, V domains shown)
VH: QVQLVQSGAEVKKPGASVKVSCKASGYTFIGYYMHWVRQAPGQGLEWMGMIGPSDGSTSYAQKFQGRVTMTRDTSTSTVYMELSSLRSEDTAVYYCARDSSGLDPWGQGTLVTVSS
VL: DIQMTQSPSSLSASVGDRVTITCRASQSISNYLNWYQQKPGKAPKLLIYKASSLESGVPSRFSGSGSGTDFTLTISSLQPEDFATYYCQQSYIIPYTFGQGTKLEIK
notes: scFv
fold selective binding, target pHLA vs minipool of negative control pHLAs [1]: ≥ 3 fold

B9: scFv R3G10-P4E07 (scFv, V domains shown)
VH: QVQLVQSGAEVKKPGSSVKVSCKASGYTFTGYYMHWVRQAPGQGLEWMGRISPSDGSTTYAPKFQGRVTITADESTSTAYMELSSLRSEDTAVYYCARDMGDAFDIWGQGTTVTVSS
VL: not shown
notes: scFv
fold selective binding, target pHLA vs minipool of negative control pHLAs [1]: ≥ 3 fold

B10: scFv R3G10-P3E04 (scFv, V domains shown)
VH: QVQLVQSGAEVKKPGASVKVSCKASGNTFIGYYVHWVRQAPGQGLEWVGIINPNGGSISYAQKFQGRVTMTRDTSTSTVYMELSSLRSEDTAVYYCARGSGDPNYYYYYGLDVWGQGTTVTVSS
VL: DIQMTQSPSSLSASVGDRVTITCQASQDISNYLNWYQQKPGKAPKLLIYAASNLQSGVPSRFSGSGSGTDFTLTISSLQPEDFATYYCQQANSLPYTFGQGTKVEIK
notes: scFv
fold selective binding, target pHLA vs minipool of negative control pHLAs [1]: ≥ 3 fold

B11: scFv G8-P1A04 (scFv, V domains shown)
VH: QVQLVQSGAEVKKPGASVKVSCKASGYPFIGQYLHWVRQAPGQGLEWMGIINPSGDSATYAQKFQGRVTMTRDTSTSTVYMELSSLRSEDTAVYYCARDLSYYYGMDVWGQGTTVTVSS
VL: DIQMTQSPSSLSASVGDRVTITCWASQGISSYLAWYQQKPGKAPKLLIYAASSLQSGVPSRFSGSGSGTDFTLTISSLQPEDFATYYCQQSYNTPWTFGPGTKVDIK
notes: scFv
fold selective binding, target pHLA vs minipool of negative control pHLAs [2]: ≥ 3 fold

B12: scFv R3G10-P1A07 (scFv, V domains shown)
VH: EVQLLESGGGLVKPGGSLRLSCAASGFTFSSYWMSWVRQAPGKGLEWVSGISARSGRTYYADSVKGRFTISRDDSKNTLYLQMNSLKTEDTAVYYCARDQDTIFGVVITWFDPWGQGTLVTVSS
VL: DIQMTQSPSSLSASVGDRVTITCRASQGISNYLAWYQQKPGKAPKLLIYAASSLQGGVPSRFSGSGSGTDFTLTISSLQPEDFATYYCQQYFTTPYTFGQGTKLEIK
notes: scFv
fold selective binding, target pHLA vs minipool of negative control pHLAs [1]: ≥ 3 fold

B13: scFv R3G10-P1H01 (scFv, V domains shown)
VH: QVQLVQSGAEVKKPGASVKVSCKASGYTFTGYYMHWVRQAPGQGLEWMGMIGPSDGSTSYAQKFQGRVTMTRDTSTSTVYMELSSLRSEDTAVYYCARGVGNLDYWGQGTLVTVSS
VL: DIQMTQSPSSLSASVGDRVTITCRASQSISNYLNWYQQKPGKAPKLLIYAASSLQSGVPSRFSGSGSGTDFTLTISSLQPEDFATYYCHQTYSTPLTFGQGTKVEIK
notes: scFv
fold selective binding, target pHLA vs minipool of negative control pHLAs [1]: ≥ 3 fold

B14: scFv R3G10-P4D10 (scFv, V domains shown)
VH: QVQLVQSGAEVKKPGASVKVSCKASGYTFTGYYLHWVRQAPGQGLEWMGMIGPSDGSTSYAQKFQGRVTMTRDTSTSTVYMELSSLRSEDTAVYYCARDGDAFDIWGQGTMVTVSS
VL: DIQMTQSPSSLSASVGDRVTITCRASQGISSWLAWYQQKPGKAPKLLIYDASNLETGVPSRFSGSGSGTDFTLTISSLQPEDFATYYCQQSYSTPLTFGGGTKVEIK
notes: scFv
fold selective binding, target pHLA vs minipool of negative control pHLAs [1]: ≥ 3 fold

B15: scFv R3G10-P1H08 (scFv, V domains shown)
VH: QVQLVQSGAEVKKPGASVKVSCKASGVTFSTSAISWVRQAPGQGLEWMGWISPYNGNTDYAQMLQGRVTMTRDTSTSTVYMELSSLRSEDTAVYYCARDAHQYYDFWSGYYSGTYYYGMDVWGQGTTVTVSS
VL: DIQMTQSPSSLSASVGDRVTITCRASQGISNYLAWYQQKPGKAPKLLIYSASNLQSGVPSRFSGSGSGTDFTLTISSLQPEDFATYYCQQAYSFPWTFGQGTKVEIK
notes: scFv
fold selective binding, target pHLA vs minipool of negative control pHLAs [1]: ≥ 3 fold

B16: scFv R3G10-P4C05 (scFv, V domains shown)
VH: QVQLVQSGAEVKKPGASVKVSCKASGYTFTGYYMHWVRQAPGQGLEWMGIIGPSDGSTTYAQKFQGRVTMTRDTSTSTVYMELSSLRSEDTAVYYCARAENGMDVWGQGTTVTVSS
VL: DIQMTQSPSSLSASVGDRVTITCRASQRISSYLNWYQQKPGKAPKLLIYSASTLQSGVPSRFSGSGSGTDFTLTISSLQPEDFATYYCQQSYSTPFTFGPGTKVDIK
notes: scFv
fold selective binding, target pHLA vs minipool of negative control pHLAs [1]: ≥ 3 fold

B17: scFv G8-P1B03 (scFv, V domains shown)
VH: EVQLLESGGGLVQPGGSLRLSCAASGFTFSDYYMSWVRQAPGKGLEWVSGINWNGGSTGYADSVKGRFTISRDNSKNTLYLQMNSLRAEDTAVYYCARVEQGYDIYYYYYMDVWGKGTTVTVSS
VL: DIQMTQSPSSLSASVGDRVTITCRASQSISSYLNWYQQKPGKAPKLLIYKASSLESGVPSRFSGSGSGTDFTLTISSLQPEDFATYYCQQSYSAPYTFGPGTKVDIK
notes: scFv
fold selective binding, target pHLA vs minipool of negative control pHLAs [2]: ≥ 3 fold

B18: scFv G8-P1C11 (scFv, V domains shown)
VH: QVQLVQSGAEVKKPGASVKVSCKASGGTLSSYPINWVRQAPGQGLEWMGWISTYSGHADYAQKLQGRVTMTRDTSTSTVYMELSSLRSEDTAVYYCARSYDYGDYLNFDYWGQGTLVTVSS
VL: DIQMTQSPSSLSASVGDRVTITCQASQDISNYLNWYQQKPGKAPKLLIYAASSLQSGVPSRFSGSGSGTDFTLTISSLQPEDFATYYCQQSYSIPPTFGGGTKVDIK
notes: scFv
fold selective binding, target pHLA vs minipool of negative control pHLAs [2]: ≥ 3 fold

B19: scFv G8-P1A03 (scFv, V domains shown)
VH: QVQLVQSGAEVKKPGASVKVSCKASGGTFSRSAITWVRQAPGQGLEWMGWINPNSGATNYAQKFQGRVTMTRDTSTSTVYMELSSLRSEDTAVYYCARDDYGDYVAYFQHWGQGTLVTVSS
VL: DIQMTQSPSSLSASVGDRVTITCRASQSITSYLNWYQQKPGKAPKLLIYDASNLETGVPSRFSGSGSGTDFTLTISSLQPEDFATYYCQQNYNSVTFGQGTKLEIK
notes: scFv
fold selective binding, target pHLA vs minipool of negative control pHLAs [2]: ≥ 3 fold

B20: scFv R3G10-P4D04 (scFv, V domains shown)
VH: QVQLVQSGAEVKKPGASVKVSCKASGYTFTGYYVHWVRQAPGQGLEWMGIIAPSDGSTNYAQKFQGRVTMTRDTSTSTVYMELSSLRSEDTAVYYCARDPGGYMDVWGKGTTVTVSS
VL: DIQMTQSPSSLSASVGDRVTITCRASQSISSYLAWYQQKPGKAPKLLIYDASKLETGVPSRFSGSGSGTDFTLTISSLQPEDFATYYCQQSYGVPTFGQGTKLEIK
notes: scFv
fold selective binding, target pHLA vs minipool of negative control pHLAs [1]: ≥ 3 fold

B21: scFv R3G10-P1E12 (scFv, V domains shown)
VH: QVQLVQSGAEVKKPGASVKVSCKASGYIFTGYYMHWVRQAPGQGLEWMGMIGPSDGSTSYAQKFQGRVTMTRDTSTSTVYMELSSLRSEDTAVYYCAREDDSMDVWGKGTTVTVSS
VL: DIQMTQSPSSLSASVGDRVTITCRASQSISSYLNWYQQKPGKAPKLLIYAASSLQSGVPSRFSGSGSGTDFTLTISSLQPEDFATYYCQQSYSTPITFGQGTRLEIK
notes: scFv
fold selective binding, target pHLA vs minipool of negative control pHLAs [1]: ≥ 3 fold

B22: scFv R3G10-P4E12 (scFv, V domains shown)
VH: QVQLVQSGAEVKKPGASVKVSCKASGYTFTGYYMHWVRQAPGQGLEWMGMIGPSDGSTSYAQRFQGRVTMTRDTSTSTVYMELSSLRSEDTAVYYCAREEDGMDVWGQGTTVTVSS
VL: DIQMTQSPSSLSASVGDRVTITCRASQGISTYLAWYQQKPGKAPKLLIYDASSLQSGVPSRFSGSGSGTDFTLTISSLQPEDFATYYCQQYYSYPWTFGQGTRLEIK
notes: scFv
fold selective binding, target pHLA vs minipool of negative control pHLAs [1]: ≥ 3 fold

B23: scFv R3G10-P5A08 (scFv, V domains shown)
VH: QVQLVQSGAEVKKPGSSVKVSCKASGGTFNNFAISWVRQAPGQGLEWMGGIIPIFDATNYAQKFQGRVTFTADESTSTAYMELSSLRSEDTAVYYCARGEYSSGFFFVGWFDLWGRGTQVTVSS
VL: not shown
notes: scFv
fold selective binding, target pHLA vs minipool of negative control pHLAs [1]: ≥ 3 fold
